Changes are numbered by the printed parent chain.
B1: R8C11VH/L4G6VK-mIgG2a (antibody, V domains shown)
VH: QVQLQQWGAGLLKPSETLSLTCAVFGGSFSGYYWSWIRQPPGKGLEWIGEINHRGNINDNPSLKSRVTISVDTSKNQFALKLSSVTAADTAVYYCARERGYSFGNYDHWGQGTLVTVSS
VL: EIVMTQSPATLSVSPGERATLSCRASQTVTRNLAWYQQKPGQAPRLLIYGASTRATGIPARFSGSGSGTEFTLTIGSLQSEDFAVYYCQQYKSWPRSFGQGTNVEIK
notes: Whole antibody with human variable regions and mouse constant regions (pMABG2a, pMABK); also called R8C11+L4G6
B2: R8C11VH/L3B4VK-mIgG2a (antibody, V domains shown)
VH: B1 VH
VL: B1 VL with S97T
notes: Whole antibody with human variable regions and mouse constant regions (pMABG2a, pMABK); also called R8C11+L3B4
B3: R7C8+L1E2 (Fab clone from the recombinant human phage antibody library) (Fab, V domains shown)
VH: B1 VH with S102T, F103Y, D107E
VL: B1 VL with T30N, S93T, S97T

Key:
[1] = molecular target: T1, GCC-His fusion protein (recombinant extracellular region of GCC with His tag) (human, UniProt P25092 24-430); test: BIAcore (SPR), GCC-His as mobile phase
T1 construct: also called GUC2C-His; recombinant GCC extracellular domain

[2] = molecular target: T1, GCC-His fusion protein (recombinant …); test: ELISA, GUC2C-his coat 3ug/ml, antibody titrated, OD490
[3] = molecular target: T1, GCC-His fusion protein (recombinant …); test: phage-ELISA, Fab phage library screened on GCC-His

Binder	Kd [1]	EC50 (read off the curve) [2]	binding result [3]
B1	11.8 nM	~2 nM	–
B2	11.2 nM	–	–
B3	–	–	binds

From patent publication US20210371492A1 (INNOVATIVE CELLULAR THERAPEUTICS, published 2021)
